The target of the experiment is recombinant fusion p30-mFc protein (ASFV p30 fused to mouse IgG1 Fc) (African swine fever virus (strain not stated)) (UniProt P34204). Description: SEC-MALS.

As to “recombinant fusion p30-mFc protein (ASFV p30 fused to mouse IgG1 Fc) (from UniProt P34204 1-204) (Fc fusion)”, the stoichiometry N worked out at 2.

For the origin of these results see PMC9769802.
